# Residue numbers refer to the chain shown, from its start.
# B1: soluble MICA generated from pKK51 (loop 3 insert extended 5.3sp) (designed binder)
# chain: EPHSLRYNLTVLSWDGSVQSGFLTEVHLDGQPFLRCDRQKCRAKPQGQWAEDVLGNKTWDRETRDLTGNGKDLRMTLAHIKDQKEGLHSLQEIRVCEIHEDNSTRSSQHFYYDGELFLSQNLETKEWTMPQSSRAQTLAMNVRNFLKEDAMKTKTHYHAMHADCLQELRRYLKSGVVLRRTVPPMVNVTRSEASEGNITVTCRASGFYPWNITLSWRQDGVSLSHDTQQWGDVLPDGNGTYQTWVATRISGGSGGGSHLARGDDLTYSGGSGGGCYMEHSGNHSTHPVPSGK
# notes: From pSW276 (no N-terminal His tag, Lys125); secreted by 293T cells; also called 3-5.3sp
# B2: soluble MICA generated from pKK36 (loop 1 insert 3.1) (designed binder)
# chain: HHHHHHEPHSLRYNLTVLSWDGSVQSGFLTEVHLDGQPFLRCDRQKCRAKPQGQWAEDVLGNKTWDRETRDLTGNGKDLRMTLAHIKDQKEGLHSLQEIRVCEIHEDNSTRSSQHFYYDGELFLSQNLETEEWTMPQSSRAQTLAMNVRNFLKEDAMKTKTHYHAMHADCLQELRRYLKSGVVLRRTVPPMVNVTSRGDHPRTQVTCRASGFYPWNITLSWRQDGVSLSHDTQQWGDVLPDGNGTYQTWVATRICQGEEQRFTCYMEHSGNHSTHPVPSGK
# notes: From pKK34 (His6, Glu125); secreted by 293T cells; also called 1-3.1
# B3: soluble MICA generated from pKK52 (tight loop 1 insert T-3.1) (designed binder)
# chain: HHHHHHEPHSLRYNLTVLSWDGSVQSGFLTEVHLDGQPFLRCDRQKCRAKPQGQWAEDVLGNKTWDRETRDLTGNGKDLRMTLAHIKDQKEGLHSLQEIRVCEIHEDNSTRSSQHFYYDGELFLSQNLETEEWTMPQSSRAQTLAMNVRNFLKEDAMKTKTHYHAMHADCLQELRRYLKSGVVLRRTVPPMVNTSRGDHPRTQCRASGFYPWNITLSWRQDGVSLSHDTQQWGDVLPDGNGTYQTWVATRICQGEEQRFTCYMEHSGNHSTHPVPSGK
# notes: From pSW324 (from pKK34: His6, Glu125); secreted by 293T cells; also called 1-T-3.1
# B4: soluble MICA generated from pKK53 (tight loop 1 insert T-3.5) (designed binder)
# chain: B3 chain with T194G, H199S, P200L, R201I, T202M, Q203H
# notes: From pSW324 (from pKK34: His6, Glu125); secreted by 293T cells; also called 1-T-3.5
# B5: soluble MICA generated from pKK54 (tight loop 1 insert T-3.3) (designed binder)
# chain: B3 chain with T194R, S195V, R196P, G197R, D198G, H199D, P200S, R201D, T202L, Q203T
# notes: From pSW324 (from pKK34: His6, Glu125); secreted by 293T cells; also called 1-T-3.3
# B6: soluble MICA generated from pKK55 (tight loop 1 insert T-5.1) (designed binder)
# chain: B3 chain with T194V, S195T, H199T, P200F, R201T, T202Q, Q203S
# notes: From pSW324 (from pKK34: His6, Glu125); secreted by 293T cells; also called 1-T-5.1
# B7: soluble MICA generated from pKK56 (tight loop 1 insert T-5.3) (designed binder)
# chain: B3 chain with T194H, S195L, R196A, G197R, D198G, H199D, P200D, R201L, Q203Y
# notes: From pSW324 (from pKK34: His6, Glu125); secreted by 293T cells; also called 1-T-5.3
# B8: M13 phage pKK104 displaying MICA α3 domain with loop 3 insert 3.2sp (designed binder)
# chain: TVPPMVNVTRSEASEGNITVTCRASGFYPWNITLSWRQDGVSLSHDTQQWGDVLPDGNGTYQTWVATRISGGSGGGSTSRGDHPRTQSGGSGGGCYMEHSGNHSTHPVPSGK
# notes: also called 3-3.2sp; not shown: C-terminal portion of M13 gene III protein, fused at codon position 198
# B9: M13 phage pKK105 displaying MICA α3 domain with loop 3 insert 3.3sp (designed binder)
# chain: B8 chain with T78R, S79V, R80P, G81R, D82G, H83D, P84S, R85D, T86L, Q87T
# notes: also called 3-3.3sp; not shown: C-terminal portion of M13 gene III protein, fused at codon position 198
# B10: M13 phage pKK94 displaying MICA α3 domain with loop 1 insert 3.3 (designed binder)
# chain: TVPPMVNVTRVPRGDSDLTVTCRASGFYPWNITLSWRQDGVSLSHDTQQWGDVLPDGNGTYQTWVATRICQGEEQRFTCYMEHSGNHSTHPVPSGK
# notes: also called 1-3.3; not shown: C-terminal portion of M13 gene III protein, fused at codon position 198
# B11: M13 phage pKK98 displaying MICA α3 domain with loop 1 insert 5.3 (designed binder)
# chain: B10 chain with R10H, V11L, P12A, S16D, D17L, L18T, T19Y
# notes: also called 1-5.3; not shown: C-terminal portion of M13 gene III protein, fused at codon position 198
# B12: M13 phage pKK92 displaying MICA α3 domain with loop 1 insert 3.1 (designed binder)
# chain: TVPPMVNVTSRGDHPRTQVTCRASGFYPWNITLSWRQDGVSLSHDTQQWGDVLPDGNGTYQTWVATRICQGEEQRFTCYMEHSGNHSTHPVPSGK
# notes: also called 1-3.1; not shown: C-terminal portion of M13 gene III protein, fused at codon position 198
# Molecular target: T1, integrin αVβ3 (UniProt P06756 31-992; P05106 27-718)
# T1 construct: Coated on the ELISA plate
# T1 sequence (P06756 31-992, chain 1 of 2): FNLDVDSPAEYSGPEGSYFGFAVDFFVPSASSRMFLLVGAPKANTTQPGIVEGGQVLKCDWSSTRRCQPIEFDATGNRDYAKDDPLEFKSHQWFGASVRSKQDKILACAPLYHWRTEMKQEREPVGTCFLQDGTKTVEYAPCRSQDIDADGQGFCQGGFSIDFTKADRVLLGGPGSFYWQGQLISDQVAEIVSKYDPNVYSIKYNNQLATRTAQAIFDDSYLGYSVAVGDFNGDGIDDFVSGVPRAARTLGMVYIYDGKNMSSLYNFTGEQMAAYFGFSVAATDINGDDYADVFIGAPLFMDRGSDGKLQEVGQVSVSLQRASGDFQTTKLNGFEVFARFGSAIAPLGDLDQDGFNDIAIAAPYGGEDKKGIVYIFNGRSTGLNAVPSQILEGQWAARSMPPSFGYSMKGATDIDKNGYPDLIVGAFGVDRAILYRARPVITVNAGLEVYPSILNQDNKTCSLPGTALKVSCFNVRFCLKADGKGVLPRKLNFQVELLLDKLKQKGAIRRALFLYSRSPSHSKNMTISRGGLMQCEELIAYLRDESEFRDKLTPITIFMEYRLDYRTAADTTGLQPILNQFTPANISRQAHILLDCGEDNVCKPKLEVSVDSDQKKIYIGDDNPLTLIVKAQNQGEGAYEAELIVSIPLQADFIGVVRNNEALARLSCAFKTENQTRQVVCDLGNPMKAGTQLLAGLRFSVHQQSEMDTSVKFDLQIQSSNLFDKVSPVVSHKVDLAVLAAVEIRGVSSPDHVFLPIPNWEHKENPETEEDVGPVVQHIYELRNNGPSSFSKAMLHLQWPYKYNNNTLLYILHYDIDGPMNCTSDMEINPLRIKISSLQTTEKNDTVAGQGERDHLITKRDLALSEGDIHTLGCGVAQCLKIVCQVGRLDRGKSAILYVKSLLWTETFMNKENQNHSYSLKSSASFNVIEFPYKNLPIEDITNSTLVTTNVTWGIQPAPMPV
# T1 sequence (P05106 27-718, chain 2 of 2): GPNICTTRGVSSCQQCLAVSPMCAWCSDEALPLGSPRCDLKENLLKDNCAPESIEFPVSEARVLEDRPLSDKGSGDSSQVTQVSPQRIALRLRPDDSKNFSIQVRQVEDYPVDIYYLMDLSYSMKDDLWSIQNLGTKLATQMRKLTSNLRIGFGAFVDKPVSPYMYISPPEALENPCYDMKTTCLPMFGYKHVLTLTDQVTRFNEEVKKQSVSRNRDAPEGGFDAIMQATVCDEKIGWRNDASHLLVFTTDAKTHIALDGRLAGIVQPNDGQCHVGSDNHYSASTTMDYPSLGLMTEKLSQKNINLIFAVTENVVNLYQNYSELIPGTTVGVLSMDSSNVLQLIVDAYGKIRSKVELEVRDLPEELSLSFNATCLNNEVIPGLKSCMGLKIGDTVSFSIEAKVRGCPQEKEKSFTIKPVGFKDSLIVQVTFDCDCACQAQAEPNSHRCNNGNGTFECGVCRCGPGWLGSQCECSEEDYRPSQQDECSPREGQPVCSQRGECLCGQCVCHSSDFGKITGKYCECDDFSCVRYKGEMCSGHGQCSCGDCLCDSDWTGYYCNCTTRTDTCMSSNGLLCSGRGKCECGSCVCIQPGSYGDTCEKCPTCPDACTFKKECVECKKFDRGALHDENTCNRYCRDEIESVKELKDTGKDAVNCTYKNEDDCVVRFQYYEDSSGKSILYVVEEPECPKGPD
# Experiment: ELISA, coated integrin, anti-MICA-HRP
# Method: (§1) The ability of the soluble MICA molecules in each of the concentrated supernatants to bind target molecules was assayed by an ELISA using the intended target proteins, integrin αVβ3 or αVβ5, as capture agents on the ELISA plate. After the respective integrins were adhered to the bottoms of the wells of the ELISA plate, the wells were washed and blocked, as well known in the field. Each sample (100 μl) of soluble MICA produced and secreted by 293T cells was added to wells containing αVβ3 or αVβ5, incubated and washed. The soluble MICA molecules captured by the integrins were detected by HRP-conjugated antibody to human MICA developed with Ultra TMB-ELISA substrate and the optical densities read. The quantity of soluble MICA in each sample was determined by the MICA-specific ELISA. […] The ELISA signal from a non-binding, negative control MICA (generated by pSW273) was subtracted from each integrin binding signal.
Binder,αvβ3 signal [OD],αvβ3 signal/ng [signal/ng MICA]
B1,0.694,7.2
B2,0.55,19
B3,0.391,10.1
B4,0.659,18.7
B5,0.177,19.5
B6,0.475,14
B7,0.473,16.4

# Molecular target: T2, integrin αVβ5 (UniProt P06756 31-992; P18084 24-719)
# T2 construct: Coated on the ELISA plate
# T2 sequence (P06756 31-992, chain 1 of 2): as the sequence (P06756 31-992, chain 1 of 2) above
# T2 sequence (P18084 24-719, chain 2 of 2): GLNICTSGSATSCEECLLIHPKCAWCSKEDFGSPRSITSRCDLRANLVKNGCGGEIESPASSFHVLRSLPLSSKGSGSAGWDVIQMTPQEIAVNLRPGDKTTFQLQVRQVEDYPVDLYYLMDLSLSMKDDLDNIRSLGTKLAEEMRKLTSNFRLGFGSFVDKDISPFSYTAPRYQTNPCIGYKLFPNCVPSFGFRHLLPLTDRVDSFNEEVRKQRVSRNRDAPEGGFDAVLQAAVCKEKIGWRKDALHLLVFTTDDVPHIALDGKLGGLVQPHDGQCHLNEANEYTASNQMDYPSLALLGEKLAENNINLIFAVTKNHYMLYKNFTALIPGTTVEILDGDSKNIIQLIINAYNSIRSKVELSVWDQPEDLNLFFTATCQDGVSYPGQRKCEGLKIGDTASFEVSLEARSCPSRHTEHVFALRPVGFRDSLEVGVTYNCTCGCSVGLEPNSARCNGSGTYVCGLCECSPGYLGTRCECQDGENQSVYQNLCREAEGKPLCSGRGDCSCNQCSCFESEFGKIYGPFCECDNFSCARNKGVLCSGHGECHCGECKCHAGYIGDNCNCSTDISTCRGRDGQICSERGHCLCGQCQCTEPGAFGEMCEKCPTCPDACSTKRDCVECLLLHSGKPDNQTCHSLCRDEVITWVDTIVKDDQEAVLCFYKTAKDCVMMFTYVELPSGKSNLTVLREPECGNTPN
# Experiment: ELISA, coated integrin, anti-MICA-HRP
# Method: as §1
Binder,αvβ5 signal [OD],αvβ5 signal/ng [signal/ng MICA]
B1,1.05,10.9
B2,0.526,18.1
B3,0.485,12.6
B4,0.8,22.8
B5,0.175,19.3
B6,0.588,17.4
B7,0.528,18.3

# Molecular target: T1, integrin αVβ3
# Experiment: phage ELISA, coated integrin, anti-M13-HRP
# Method: (§2) The phage vectors were independently transformed into NEBαF′tet competent E. coli cells. Phages produced by the transformed cells were tittered and their concentrations adjusted by dilution to 10¹³ per ml. The ability of the soluble MICA molecules in each of the phage preparations was assayed by an ELISA using the intended target proteins, integrin αVβ3 or αVβ5, as capture agents on the ELISA plate. After the respective integrins were adhered to the bottoms of the wells of the ELISA plate, the wells were washed and blocked, as well known in the field. Each sample (100 μl) of phage preparation was added to wells containing αVβ3 or αVβ5, incubated and washed. The phages captured by the integrins were detected by HRP-conjugated antibody to the M13 phage coat developed with Ultra TMB-ELISA substrate and the optical densities read.
row,Binder,αvβ3 signal [OD]
1,B8,0.791
2,B9,1.33
3,B10,1.07
4,B11,1.22
5,B12,0.858

# Molecular target: T2, integrin αVβ5
# Experiment: phage ELISA, coated integrin, anti-M13-HRP
# Method: as §2
row,Binder,αvβ5 signal [OD]
1,B8,1.12
2,B9,1.11
3,B10,2.84
4,B11,1.48
5,B12,1.32
